# Positions count from the first letter of the chain named.
# B1: LK-RB1-39 (antibody, human IgG4 S228P, kappa, V domains shown)
# VH: EVQLQQSGAELVRPGASVKLSCTASGFNIKDDYVHWVNQRPEQGLEWIGWIDPENGDTGYASKFQDKATITADTSSNTAYLHLSSLTSEDTAVYYCTTTRWTGSYWGQGTTLTVSS
# VL: QIVLTQSPAIMSASPGEKVTITCSASSSVNYMHWFQQKPGSSPKLWIYSTANLASGVPARFSGSGSGTSYSLTISRMEAEDAATYYCQQRSSYPPTWTFGGGTKLEIKR
# B2: LK-RB2-8 (antibody, human IgG4 S228P, kappa, V domains shown)
# VH: QIQLVQSGPELKKPGETVKISCKASGYSFASYGMGWVKQAPGKGLKWLGWINTHSGVPTYADDFKGRFAFSLETSASTAYLQINNLKNEDTATYFCAHYGRPWFPYWGQGTLVTVSA
# VL: DIQMTQSPASLSASVGETVTITCRTSENIYSYLAWYQQKQGKSPQLLVYNAKSLAEGVPSRFSGSGSGTQFSLRINSLQPEDFGTYYCQQHYETPLTFGAGTKLELKR
# B3: LK-RB2-16 (antibody, human IgG4 S228P, kappa, V domains shown)
# VH: B2 VH with S28T, A30T, S31T, G42E, L48M, H54N, V57A, A61G, P105A
# VL: B2 VL with T25A, Q37H, K42E, S53T, R74K, T85S, Q90H, E93N, T94I
# B4: LK-RB2-24 (antibody, human IgG4 S228P, kappa, V domains shown)
# VH: QIQLVQSGPEVKKPGETVKISCKASGYTFTTYGMSWVKQAPGKGLKWMGWLNIYSGVPAYADDFKGRFAFSLESSASTAYLQINNLKNEDTATYFCARRENYDGYGMDYWGQGTSVTVSS
# VL: DIVMTQSPATLSVTPGDRVSLSCRASQSISDYLHWYQQKSHESPRLLIKYASQSISGIPSRFSGSGSGSDFTLSINSVEPEDVGVYYCQNGHSFPYTFGGGTKLEIKR
# B5: LK-RB2-21 (antibody, human IgG4 S228P, kappa, V domains shown)
# VH: EVQLVESGGDLVKPGGSLKLSCAASGFTFSSYGMSWVRQTPDKRLEWVATISSGGSYTYYPDSLKGRFTISRDNAKSTLYLQMSSLKSEDTAKYYCARPYYDYIFYAIDYWGQGTSVTVSS
# VL: DIQMNQSPSSLSASLGDTITITCHASQNINVWLSWYQQKPGNIPKLLIYKASNLHTGVPSRFSGSGSGTGFTLTISSLQPEDIATYYCQQGQSYPLTFGGGTKLEIKR
# B6: LK-RB2-33 (antibody, human IgG4 S228P, kappa, V domains shown)
# VH: EVQLQQSGVELVRPGALVKLSCKASGFNIKDYYMHWVKQRPEQGLEWIGWIDPEKGDTIYGPKFQGKASITADTSSNTAYLQLSSLTSEDTAVYYCSRGPNYGSSYAFAYWGQGTLVTVSA
# VL: DVVMTQSHKFMSTSVGDRVTITCKASQDVSNAVAWYQQKPGQSPKLLIYSASYRYTGVPDRFTGSGSGTDFTFTISSMQAEDLAVYYCQQHYSLPWTFGGGTKLEIKR
# B7: LK-RB2-13 (antibody, human IgG4 S228P, kappa, V domains shown)
# VH: QIQLVQSGPELKKPGETVKISCKASGYTFTTYGMSWVKQAPGKGLQWMGWINTYSGVPTFADDFKGRFAFSLDTSASTAYLQINNLKNEDTATYFCARRINWDGYAMDYWGQGTSVTVSS
# VL: DSVMSQSPSSLAVSVGEKVTMSCKSSQSLLYSGNQKSYLAWYQQKPGQSPKLLIYWASTRESGVPDRFTGSGSGTDFTLTISSVKAEDLAVYYCQQYYSYPYTFGGGTKLEIKR
# B8: LK-RB2-17 (antibody, human IgG4 S228P, kappa, V domains shown)
# VH: B7 VH with T31N, K65R, N85S, T93A
# VL: B7 VL with M21L, T59S, Y100F
# B9: LK-RB2-7 (antibody, human IgG4 S228P, kappa, V domains shown)
# VH: DVKLVESGEGLVKPGGSLKLSCAASGFTFSSYAMSWVRQTPEMRLEWVAYISSGGDHFYYADTVKGRFTISRDNARSTLYLQMSSLKSEDTAMYYCTREGASYDSNFLAWFAYWGQGTLVTVSA
# VL: DIQMTQSPASLSVSVGETVTITCRASENIYSNLAWYQQKEGKSPQLLVYGATNLADGVPSRFSGSGSGTQYSLKINSLQSEDFGSYYCQNFWDIPLTFGAGTKLELKR
# B10: LK-RB2-18 (antibody, human IgG4 S228P, kappa, V domains shown)
# VH: EVQLQQSGPELVKPGTSVKISCKASGYTFTDYYMNWVKQSHGKSLEWIGDINPNNGGTSYNQKFKGKATLTVDKSSSTAYMELRSLTSEDSAVFYCARSGTTVVGTYWYFDVWGTGTTVTVSS
# VL: B9 VL with E40Q, N90H, I94T, L96F, A100S, L106I
# B11: LK-RB2-9 (antibody, human IgG4 S228P, kappa, V domains shown)
# VH: DVQLQESGPGLVKPSQSLSLTCSVTGYSITSGYYWNWIRQFPGNKLEWMGYIGYDGNNNYNPSLKNRISITRDTSKNQFFLKLNSLTTEDTATYYCAREGSTMVTSWFAYWGQGTLVTVSA
# VL: B9 VL with E40Q, S65R, G68D, N90H, I94T, L96Y, A100G, L106I
# B12: LK-RB2-35 (antibody, human IgG4 S228P, kappa, V domains shown)
# VH: EVQLQQSGPELVKPGASVKISCKASGYTFTDYNMHWVKQSHGKSLEWIGSIYPYNGGSDYNQKFKSKATLTVDNSSSTAYMELRSLTSEDSAVYYCASELTGLYAMDYWGQGTSVTVSS
# VL: B4 VL with N90T
# B13: LK-RB2-19 (antibody, human IgG4 S228P, kappa, V domains shown)
# VH: QVQLQQPGAELVKPGASVKLSCKASGYTFTSYWMHWVKQRPGQGLEWIGMIHPNSGGTNYNEKFKSKATLTVDKSSSTAYMQFSSLTSEDSAVYYCARCTVVALYYALDYWGQGTSVTVSS
# VL: QIVLSQSPAILSASPGEKVTMTCRATSRVSYIHWFQQKPGSSPKPWIYVTSNLASGVPARFSGSGSGTSYSLTISKLEAEDVATYYCQQWSTNPLTFGAGTKLELKR
# B14: LK-RB2-14 (antibody, human IgG4 S228P, kappa, V domains shown)
# VH: QVQLKQSGPGLVQPSQSLSITCTVSGFSLTSYGVHWVRQSPGKGLEWLGVIWRGGSTDYNAAFMSRLSITKDNSKSQVFFKMNSLQADDTAIYYCAKNEGDSTVVAWYFDVWGTGTTVTVSS
# VL: DIQMTQTTSSLSASLGDRVTISCSASQGISNYLNWFQQKPDGTVKLLIYYTSSLHSGVPSRFSGSGSGTDYSLTISNLEPEDIATYYCQQYSKLPLTFGAGTKLELKR
# B15: LK-RB2-20 (antibody, human IgG4 S228P, kappa, V domains shown)
# VH: QVQLKQPGAERVKPGASVKMSCKASGYTFTRYWITWVKQRPGQGLEWIGDIYPGSATTNYNEKFKSKATLTEDTSSSTAYMQLSSLTSEDSAVYYCARSGDYSNSNYAMDYWGQGTSVTVSS
# VL: NIEMTQSPKSMSMAVGERVTLSCKASENVGTYVSWYQQKPEQSPKLLIYGASNRNTGVPDRFTGSGSATDFTLTISSVQAEDLADYHCGQSYSYPFTFGSGTKLEIKR
# B16: LK-RB2-12 (antibody, human IgG4 S228P, kappa, V domains shown)
# VH: QIQLVQSGPELKKPGETVKISCKASGYTFTTYGMSWVKQTPGKGLKWMGWINIYSGVPTYADDFKGRFVFSLEISASTAHLQINNLKNEDTATYFCARRKDYSGHCFDYWGQGTTLTVSS
# VL: DIVLTQSPASLAVSPGQRATISCRASESVDTYGISFMHWYQQKPGQPPKLLIYRASNLESGIPARFSGSGSRTDFTLTINPVETDDVAIYYCQQSKKDPYTFGGGTKLEIKR
# B17: LK-RB2-23 (antibody, human IgG4 S228P, kappa, V domains shown)
# VH: B16 VH with T40A, V69A, I74T, H80Y, K100G, S103D, H105Y, C106Y
# VL: NIVLIQSAATLSVTPGDSVSLSCRASQSLSNGLHWYQQKSHESPRLLIKYGSQSISGIPSRFSGSGSGTDFTLSINSVETEDFGMYFCQQSDSWPHTFGSGTKLEIKR
# B18: LK-RB2-22 (antibody, human IgG4 S228P, kappa, V domains shown)
# VH: B16 VH with P14T, T40A, V69A, I74T, H80Y, K100A, S103D, H105Y, C106Y
# VL: NIVMTQTPKFLLVSAGDRVTITCRASQSVTNDVAWYQQRPGQSLKLLIYYASNRYTGVPDRFTGSGYGTDFTFTISTVQAEDLAVYFCQQGYSSPFTFGSGTKLEIKR
# B19: LK-RB2-45 (antibody, human IgG4 S228P, kappa, V domains shown)
# VH: B16 VH with K46Q, I53V, V69A, I74A, H80Y, T93S, K100G, S103D, C106Y
# VL: B4 VL with H34N, A51V, V83I, S93N, Y96L, I106L
# B20: LK-RB2-15 (antibody, human IgG4 S228P, kappa, V domains shown)
# VH: B16 VH with T40A, I53V, V69A, H80Y, N88D
# VL: B16 VL with P15L, I21F, I89T, D98E
# B21: LK-RB2-24.h2 (antibody, human IgG4, kappa, V domains shown)
# VH: QVQLVQSGSELKKPGASVKVSCKASGYTFTTYGMSWVKQAPGQGLKWMGWLNIYSGVPAYADDFKGRFVFSLDTSASTAYLQISSLKAEDTAVYFCARRENYDGYGMDYWGQGTLVTVSS
# VL: EIVLTQSPATLSLSPGERATLSCRASQSISDYLHWYQQKPGQAPRLLIKYASQSISGIPSRFSGSGSGTDFTLTISSLEPEDFAVYYCQNGHSFPYTFGGGTKLEIKR
# notes: Humanized form of LK-RB2-24
# B22: LK-RB2-2.h1 (antibody, human IgG4, kappa, V domains shown)
# VH: EVQLVESGGGLVKPGGSLRLSCAASGFTFSSYAMSWVRQAPGKGLEWVSYISSGGDYFHYADTVKGRFTISRDNAKNSLYLQMNSLRAEDTAVYYCAREGAHYDSSYLAWFAHWGQGTLVTVSS
# VL: DIQMTQSPSSVSASVGDRVTITCRASENIYSNLAWYQQKPGKAPKLLIYAATNLAEGVPSRFSGSGSGTDYTLTISSLQPEDFATYYCQQFWDNPLTFGQGTKLEIKR
# notes: Humanized form of LK-RB2-2
# B23: LK-RB2-2.h3 (antibody, human IgG4, kappa, V domains shown)
# VH: B22 VH with S49A, A97T
# VL: B22 VL
# notes: Humanized form of LK-RB2-2
# B24: LK-RB2-2.h2 (antibody, human IgG4, kappa, V domains shown)
# VH: B22 VH
# VL: B22 VL with I48V
# notes: Humanized form of LK-RB2-2
# Molecular target: T1, human LILRB1 (human, UniProt Q8NHL6 24-458, limits assumed)
# T1 construct: also called hLILRB1
# T1 sequence (Q8NHL6 24-458 limits assumed): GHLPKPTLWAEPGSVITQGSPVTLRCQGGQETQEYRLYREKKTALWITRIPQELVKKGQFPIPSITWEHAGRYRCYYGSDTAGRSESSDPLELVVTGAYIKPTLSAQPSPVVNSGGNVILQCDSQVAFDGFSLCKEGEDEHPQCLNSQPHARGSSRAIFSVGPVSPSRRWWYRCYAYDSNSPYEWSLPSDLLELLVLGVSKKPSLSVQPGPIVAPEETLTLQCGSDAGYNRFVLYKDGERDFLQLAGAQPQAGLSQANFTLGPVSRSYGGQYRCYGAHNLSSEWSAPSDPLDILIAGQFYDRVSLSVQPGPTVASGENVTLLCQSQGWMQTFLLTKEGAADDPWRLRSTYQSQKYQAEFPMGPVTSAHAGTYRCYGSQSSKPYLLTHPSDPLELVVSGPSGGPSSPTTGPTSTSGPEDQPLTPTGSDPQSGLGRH
# Experiment: Octet off-rate ranking;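 further: antibody dissociation rate constants against cynomolgus LILRB2 plus human LILRB1, LILRB2, LILRA1 and LILRA2, measured on an Octet instrument to rank binding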
# Description: (§1) Binding affinity of anti-LILRB1 and anti-LILRB2 antibodies against human LILRB1, LILRB2, LILRA1, LILRA2 and cynomolgus LILRB2 was ranked by measuring dissociation rate constant (Kdis) using the Octet system.
row,koff,Binder
1,4.64e-05 s⁻¹,B1
2,4.85e-05 s⁻¹,B2
3,0.000238 s⁻¹,B3
4,0.000205 s⁻¹,B4

# Molecular target: T2, human LILRB2 (human, UniProt Q8N423 22-460, limits assumed)
# T2 construct: also called hLILRB2
# T2 sequence (Q8N423 22-460 limits assumed): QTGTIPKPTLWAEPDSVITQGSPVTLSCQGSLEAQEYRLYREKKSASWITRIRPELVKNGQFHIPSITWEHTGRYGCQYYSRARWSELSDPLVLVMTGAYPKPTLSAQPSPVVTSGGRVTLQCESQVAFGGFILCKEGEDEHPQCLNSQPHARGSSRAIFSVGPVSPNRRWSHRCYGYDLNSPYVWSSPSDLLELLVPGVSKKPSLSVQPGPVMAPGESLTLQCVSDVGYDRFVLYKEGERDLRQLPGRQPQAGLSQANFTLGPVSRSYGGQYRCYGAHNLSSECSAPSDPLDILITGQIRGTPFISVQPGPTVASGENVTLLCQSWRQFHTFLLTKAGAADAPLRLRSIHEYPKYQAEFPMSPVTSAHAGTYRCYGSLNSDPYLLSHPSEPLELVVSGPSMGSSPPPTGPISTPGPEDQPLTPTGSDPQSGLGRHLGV
# Experiment: Octet off-rate ranking;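 further: antibody dissociation rate constants against cynomolgus LILRB2 plus human LILRB1, LILRB2, LILRA1 and LILRA2, measured on an Octet instrument to rank binding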
# Description: as §1
row,koff,Binder
1,0.00153 s⁻¹,B1
2,0.000966 s⁻¹,B5
3,0.00139 s⁻¹,B6
4,0.00304 s⁻¹,B7
5,0.000926 s⁻¹,B8
6,1e-07 s⁻¹,B2
7,5.5e-05 s⁻¹,B3
8,0.0014 s⁻¹,B9
9,0.000174 s⁻¹,B10
10,0.00135 s⁻¹,B11
11,0.000244 s⁻¹,B4
12,0.0012 s⁻¹,B12
13,0.002 s⁻¹,B13
14,0.000302 s⁻¹,B14
15,0.000895 s⁻¹,B15
16,0.000662 s⁻¹,B16
17,0.000876 s⁻¹,B17
18,0.00126 s⁻¹,B18
19,8.84e-05 s⁻¹,B19
20,6.22e-05 s⁻¹,B20

# Molecular target: T3, human LILRB1-his (human, UniProt Q8NHL6 24-458, limits assumed)
# T3 construct: Analyte of the Biacore run; not shown: His tag
# T3 sequence (Q8NHL6 24-458 limits assumed): as the sequence (Q8NHL6 24-458 limits assumed) above
# Experiment: SPR (Biacore 8K), antibody captured via Fc, LILRB1-his as analyte, 1:1 model
Kd,koff,kon,Binder
31.6 nM,0.00582 s⁻¹,184000 M⁻¹ s⁻¹,B21

# Molecular target: T4, human LILRB2-his (human, UniProt Q8N423 22-460, limits assumed)
# T4 construct: Analyte of the Biacore run; not shown: His tag
# T4 sequence (Q8N423 22-460 limits assumed): as the sequence (Q8N423 22-460 limits assumed) above
# Experiment: SPR (Biacore 8K), antibody captured via Fc, LILRB2-his as analyte, 1:1 model
Kd,koff,kon,Binder
0.161 nM,0.000123 s⁻¹,766000 M⁻¹ s⁻¹,B22
0.201 nM,0.000129 s⁻¹,642000 M⁻¹ s⁻¹,B23
0.208 nM,0.00014 s⁻¹,673000 M⁻¹ s⁻¹,B24
1.01 nM,0.000871 s⁻¹,860000 M⁻¹ s⁻¹,B21

# Reference: US20260234247A1 (published 2026)
